In paper PMC9491713:

Biological target: cSFB-RBPJ protein purified from 293F cells, Q06330
Test: BLI
Conditions: remark: other sources report otherwise

B1: FLAG-FBXO42 protein purified from 293F cells, Q6P3S6 1-717 (natural protein)
chain: MASSSDSEDDSFMAVDQEETVLEGTMDQDEEPHPVLEAEETRHNRSMSELPEEVLEYILSFLSPYQEHKTAALVCKQWYRLIKGVAHQCYHGFMKAVQEGNIQWESRTYPYPGTPITQRFSHSACYYDANQSMYVFGGCTQSSCNAAFNDLWRLDLNSKEWIRPLASGSYPSPKAGATLVVYKDLLVLFGGWTRPSPYPLHQPERFFDEIHTYSPSKNWWNCIVTTHGPPPMAGHSSCVIDDKMIVFGGSLGSRQMSNDVWVLDLEQWAWSKPNISGPSPHPRGGQSQIVIDDATILILGGCGGPNALFKDAWLLHMHSGPWAWQPLKVENEEHGAPELWCHPACRVGQCVVVFSQAPSGRAPLSPSLNSRPSPISATPPALVPETREYRSQSPVRSMDEAPCVNGRWGTLRPRAQRQTPSGSREGSLSPARGDGSPILNGGSLSPGTAAVGGSSLDSPVQAISPSTPSAPEGYDLKIGLSLAPRRGSLPDQKDLRLGSIDLNWDLKPASSSNPMDGMDNRTVGGSMRHPPEQTNGVHTPPHVASALAGAVSPGALRRSLEAIKAMSSKGPSASAALSPPLGSSPGSPGSQSLSSGETVPIPRPGPAQGDGHSLPPIARRLGHHPPQSLNVGKPLYQSMNCKPMQMYVLDIKDTKEKGRVKWKVFNSSSVVGPPETSLHTVVQGRGELIIFGGLMDKKQNVKYYPKTNALYFVRAKR
- Kd: 47 nM
